Laboratory results from US20180155426A1 (SANFORD BURNHAM PREBYS MEDICAL DISCOVERY INSTITUTE, published 2018).

How the values were obtained:
[1] = target: T1, human BTLA expressed on cells (human, UniProt Q7Z6A9 31-289); test: flow cytometry on MEF cells expressing huBTLA compared to non-BTLA expressing parental cells
T1 construct: whole, on cells; also called huBTLA; B and T lymphocyte attenuator
Method: The resulting hybridoma clones were screened by ELISA against huBTLA:huIgG and purified huIgG to identify those specific for huBTLA. A secondary screen was performed by binding to Beg+/+MEF cells expressing huBTLA and analyzing by flow cytometry compared to the non-BTLA expressing parental cells.

[2] = target: T2, huBTLA:huIgG recombinant fusion protein (human, UniProt Q7Z6A9 31-157, limits assumed); test: ELISA screen against huBTLA:huIgG (with purified huIgG as counter-screen)
T2 construct: Produced in 293T cells; Used as the immunogen and as the ELISA screening antigen; not shown: human IgG portion
T2 sequence (looked up): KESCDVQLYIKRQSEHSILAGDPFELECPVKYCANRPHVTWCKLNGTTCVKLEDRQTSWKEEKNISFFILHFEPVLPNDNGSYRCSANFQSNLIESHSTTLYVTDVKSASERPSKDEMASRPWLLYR

B1: anti-human BTLA monoclonal antibody clone 6F4 (antibody, V domains shown)
VH: EVQILETGGGLVKPGGSLRLSCATSGFNFNDYFVNWVRQAPGKGLQWVAQIRNKNYNPATYYAESLEGRVTISRDDSKSSVYLQVSSVRAEDTAIYYCSPISSYYHDGSLHYSDYWGQGVMVTVSS
VL: DIQMTQSPSVLSVSVGDRVTLNCKASHNIKNYLNWYQQKLGEAPKLLIYDTVNLQTGIPSRFSGSGSGTDFTVTISSLQPEDVATYFCFQYHSWPYTFGAGTKLELKR
notes: also called rat anti-hBLTA Mab Clone 6F4; Anti BTLA 6F4
binding result [1]: binds
binding result [2]: binds
